Results taken from patent US20220325265A1, “GLUCOCEREBROSIDASE MUTANTS” (Hoffmann-la Roche Inc., priority 2019, published 2022).
Several values for one entry are separate records, joined by “and”; a condition that tells them apart may be missing. Identical values can stand only once.

How the values were obtained:
hGCase = experiment: Inhibition of hGCase using conditurol-β-epoxide (CBE), IC50 determination; format: biochemical, human; settings: irreversible inhibitor conditurol-β-epoxide on the named hGCase variant; 25 nM protein, 10 min pre-incubation, 20 μM res-β-glc
Experimental: CBE is an irreversible inhibitor of glucocerebrosidases which covalently binds to the active site of the enzyme (Liou et al., 2006).
A stock solution of 100 mM CBE in H2Oultrapure was prepared. For IC50 determination, CBE concentrations ranging from 0.04-2500 μM were tested. Again, the final enzyme concentration was 25 nM. After adding the inhibitor, the enzyme was pre-incubated for 10 min before initializing the activity measurement by adding the substrate (20 μM).
IC50 evaluations were done in the same manner as described for IFG (see section above). The IC50 calculations were done using GraphPad Prism7 following equation 9.
To determine whether the active binding site of an enzyme is compromised or altered, IC50 values were calculated for active site inhibitor and compared. In this work, the natural occurring GCase inhibitor isofagomine (IFG) and conditurol-β-epoxide (CBE) were used. IFG is known as a reversible inhibitor, interacting with the active site of the GCase enzyme, whereas CBE is an irreversible inhibitor of GCase (Powe et al., 2006). The IC50 of an enzyme is defined as the concentration of an inhibitor, where the response, in this case the enzyme activity, is reduced by half (Kalliokoski et al., 2013). Both assays were conducted as described in section 2.5.6. The inhibitor profiles of M53T/P55T using IFG and CBE as well as the IC50 profiles of all residual mutants combined are shown in FIG. 4.
The raw data was plotted by transforming the applied IFG/CBE concentration to a logarithmic scale (x-axis, FIG. 4) and by normalizing the activity signal with highest signal of each data set to 100% (defined with apparent inhibitor concentration of 10-12 μM, equal to no inhibitor). IC50 values were calculated using GraphPad Prism7 following equation 9.

[1] = Determination of the kinetic parameters (Michaelis-Menten) with artificial substrate; format: biochemical; settings: for kcat: protein concentration used: 25 nM; for Km / Vmax: res-β-glc 4-500 μM, 25 nM protein
Experimental: The kinetic parameters were examined using the artificial substrate resorufin-β-glucopyranoside (Sigma-Aldrich). For the determination, final concentrations of substrate ranging from 4-500 μM were tested. The assay followed the activity assay instructions in section 2.3.5. 25 nM final protein concentration was used for each construct. The incubation time was set to 30 min to ensure measurements in the linear signal range. The kinetics were evaluated and plotted according to Michaelis-Menten (Cornish-Bowden, 2013; Johnson, 2015). KM, Vmax was calculated by GraphPad Prism7 applying the Michaelis-Menten fit equation provided by the program. The equation model follows: […]
with: • KM: Michaelis-Menten constant [μM] • Vmax: maximum velocity of reaction [μM/min]
The kinetic parameter kcat is defined as the catalytic constant, representing the turnover number of substrate to product per time unit (here per second) (Eisenthal et al., 2007). kcat can be calculated as follows: […]
with: • kcat: turnover number [min-1] • Vmax: maximum velocity of reaction [μM/min] • [E]tot.: total enzyme concentration [nM]
Another kinetic key parameter to describe the catalytic efficiency of enzymes is the parameter kcat/KM, measured in [μM−1*s−1] in this work (Eisenthal et al., 2007).
Determining enzyme kinetic key parameters gives solid information about the efficiency and efficacy of an enzyme and how certain mutations can impact its functionality. For the determination and comparison of the enzymatic performances, KM, Vmax and kcat as well as kcat/KM were calculated for the different hGCase variants, respectively (Eisenthal et al., 2007). The according assay was performed as described in section 2.5.5, all measured with the artificial substrate res-3-glc. KM and Vmax determination for representative mutant M53T/P55T was done applying the Michaelis-Menten curve fit (GraphPad Prism7; see equation 4) as shown in the following.
The kinetic raw data is depicted in FIG. 5 (A) with progression curves following pseudo first order in a linear measurement range with a good reproducibility and low variance. The slopes of the progression curves can be replotted, with velocities V [μM/min] plotted as a function of substrate concentration [S] applied, resulting in a typical course of a Michaelis-Menten curve (Cornish-Bowden, 2013; Johnson, 2015).

[2] = Thermal shift assay via nanoDSF measurement (unfolding temperature); format: physicochemical; settings: Prometheus NT.Plex, 3° C./min, 0.06-0.5 mg/ml
Experimental: The thermal shift assay was performed via nanoDSF (differential scanning fluorimetry) measurements using Prometheus NT.Plex nanoDSF (NanoTemper Technologies). The measurement was initialized using the software PR.ThermoControl. Prometheus can precisely characterize samples by measuring the thermal unfolding, chemical denaturation and aggregation within one single run (NanoTemper Technologies, 2019). By gradually heating the sample until reaching 95° C., the protein unfolds. Thereby, the chemical environment of tryptophan residues changes (change in intrinsic tryptophan fluorescence of protein due to more aqueous environment), causing a red-shift in fluorescence (tryptophan fluorescence emission shift). By plotting the fluorescence ratio 350/330 nm against the temperature, the melting temperature Tm can be determined. Calculating the first derivative of raw data gives a peak curve with its maximum indicating the unfolding temperature Tm.
For the sample preparation, a concentration of 0.5 mg/ml was adjusted for the hGCase mutants. For variant I5N and R495HS2, protein concentrations of 0.075 mg/ml (I5N) and 0.06 mg/ml (R495HS2) were applied due to low protein yields. 15 μl total sample volume was uptaken in each capillary of the capillary rack (Prometheus NT.Plex Capillary Chips, NanoTemper) and placed in the device. The excitation power was adjusted to 20-80%, depending on the applied protein concentration. The gradually heating was set to 3° C./min until reaching 95° C. (20° C. was set as starting temperature). The evaluation and calculation of the first derivative was done using the NanoTemper PR.ThermoControl software, the final evaluation and graphing was done using the PR.StabilityAnalysis software.
On the one hand, a successively increasing temperature gradient was applied to measure melting temperatures of protein molecules via nanoDSF (differential scanning fluorimetry) measurement using Prometheus NT.Plex (NanoTemper Technologies, 2019). The sample is gradually heated by increasing the temperature until reaching 95° C. Thereby, the protein unfolds and tryptophan residues experience a change in chemical environment (exposure to a more aqueous environment), which changes the intrinsic tryptophan fluorescence of the protein, causing a red shift in the fluorescent spectrum (350/330 nm=tryptophan fluorescence emission shift) (Schubert, 2015). In FIG. 1, typical melting curves of such an unfolding experiment are shown.
In the upper section of the graphs (FIGS. 1 (A) and (B)), the raw data (progression curves) measured with nanoDSF is plotted, indicating the shift in the fluorescence ratio 350/330 nm during the course of the measurement with increasing temperature. The calculation of the first derivative, giving peak curves (lower section of graphs in (A) and (B)), was done according to default settings of the Software PR.StabilityAnalysis (table 2). Peak maxima (thermal unfolding transition midpoint) indicate the unfolding temperature Tm, where half of the proteins are unfold (Schubert, 2015).

Molecule	IC50 (hGCase) [µM]	kcat [1] [s⁻¹]	Km [1]	Vmax [1]	unfolding temperature Tm [2]
R495HS2: hGCase based on the Cerezyme sequence (R495H) but produced in S2 cells, His8-tagged; Seq. Id. No. 1 (protein, listed as Homo sapiens, His8 tag) ARPCIPKSFGYSSVVCVCNATYCDSFDPPTFPALGTFSRYESTRSGRRMELSMGPIQANHTGTGLLLTLQPEQKFQKVKGFGGAMTDAAALNILALSPPAQNLLLKSYFSEEGIGYNIIRVPMASCDFSIRTYTYADTPDDFQLHNFSLPEEDTKLKIPLIHRALQLAQRPVSLLASPWTSPTWLKTNGAVNGKGSLKGQPGDIYHQTWARYFVKFLDAYAEHKLQFWAVTAENEPSAGLLSGYPFQCLGFTPEHQRDFIARDLGPTLANSTHHNVRLLMLDDQRLLLPHWAKVVLTDPEAAKYVHGIAVHWYLDFLAPAKATLGETHRLFPNTMLFASEACVGSKFWEQSVRLGSWDRGMQYSHSIITNLLYHVVGWTDWNLALNPEGGPNWVRNFVDSPIIVDITKDTFYKQPMFYHLGHFSKFIPEGSQRVGLVASQKNDLDAVALMHPDGSAVVVVLNRSSKDVPLTIKDPAVGFLETISPGYSIHTYLWHRQ	55 ± 3	0.05	189 ± 45.5 µM	0.08 ± 0.01 µM/min and 0.08 µM/min	54.6 °C and 54.6 ± 0.0 °C
I5N: recombinant human β-glucocerebrosidase variant R495H/I5N, S2 cells; Seq. Id. No. 4 (protein, listed as Homo sapiens, recombinant human β-glucocerebrosidase variant R495H/I5N, S2 cells; Id; No. 4) ARPCNPKSFGYSSVVCVCNATYCDSFDPPTFPALGTFSRYESTRSGRRMELSMGPIQANHTGTGLLLTLQPEQKFQKVKGFGGAMTDAAALNILALSPPAQNLLLKSYFSEEGIGYNIIRVPMASCDFSIRTYTYADTPDDFQLHNFSLPEEDTKLKIPLIHRALQLAQRPVSLLASPWTSPTWLKTNGAVNGKGSLKGQPGDIYHQTWARYFVKFLDAYAEHKLQFWAVTAENEPSAGLLSGYPFQCLGFTPEHQRDFIARDLGPTLANSTHHNVRLLMLDDQRLLLPHWAKVVLTDPEAAKYVHGIAVHWYLDFLAPAKATLGETHRLFPNTMLFASEACVGSKFWEQSVRLGSWDRGMQYSHSIITNLLYHVVGWTDWNLALNPEGGPNWVRNFVDSPIIVDITKDTFYKQPMFYHLGHFSKFIPEGSQRVGLVASQKNDLDAVALMHPDGSAVVVVLNRSSKDVPLTIKDPAVGFLETISPGYSIHTYLWHRQ	–	0.09	118 µM	0.14 µM/min	54.8 ± 0.4 °C

Continued, in another order:

IC50 (hGCase) [µM]	Molecule	kcat [1] [s⁻¹]	Km [1]	Vmax [1]	unfolding temperature Tm [2]
35	K321N/H145L: Amicus double mutant hGCase R495H/K321N/H145L produced in S2 cells; Seq. Id. No. 3 (protein, listed as Homo sapiens, Amicus double mutant hGCase R495H/K321N/H145L produced in S2 cells; Id; No. 3) ARPCIPKSFGYSSVVCVCNATYCDSFDPPTFPALGTFSRYESTRSGRRMELSMGPIQANHTGTGLLLTLQPEQKFQKVKGFGGAMTDAAALNILALSPPAQNLLLKSYFSEEGIGYNIIRVPMASCDFSIRTYTYADTPDDFQLLNFSLPEEDTKLKIPLIHRALQLAQRPVSLLASPWTSPTWLKTNGAVNGKGSLKGQPGDIYHQTWARYFVKFLDAYAEHKLQFWAVTAENEPSAGLLSGYPFQCLGFTPEHQRDFIARDLGPTLANSTHHNVRLLMLDDQRLLLPHWAKVVLTDPEAAKYVHGIAVHWYLDFLAPANATLGETHRLFPNTMLFASEACVGSKFWEQSVRLGSWDRGMQYSHSIITNLLYHVVGWTDWNLALNPEGGPNWVRNFVDSPIIVDITKDTFYKQPMFYHLGHFSKFIPEGSQRVGLVASQKNDLDAVALMHPDGSAVVVVLNRSSKDVPLTIKDPAVGFLETISPGYSIHTYLWHRQ	0.09	158 µM and 156 µM	0.13 µM/min	57.3 ± 0.0 °C
28	K321N: Amicus single mutant hGCase R495H/K321N produced in S2 cells; Seq. Id. No. 2 (protein, listed as Homo sapiens, Amicus single mutant hGCase R495H/K321N produced in S2 cells; Id; No. 2) ARPCIPKSFGYSSVVCVCNATYCDSFDPPTFPALGTFSRYESTRSGRRMELSMGPIQANHTGTGLLLTLQPEQKFQKVKGFGGAMTDAAALNILALSPPAQNLLLKSYFSEEGIGYNIIRVPMASCDFSIRTYTYADTPDDFQLHNFSLPEEDTKLKIPLIHRALQLAQRPVSLLASPWTSPTWLKTNGAVNGKGSLKGQPGDIYHQTWARYFVKFLDAYAEHKLQFWAVTAENEPSAGLLSGYPFQCLGFTPEHQRDFIARDLGPTLANSTHHNVRLLMLDDQRLLLPHWAKVVLTDPEAAKYVHGIAVHWYLDFLAPANATLGETHRLFPNTMLFASEACVGSKFWEQSVRLGSWDRGMQYSHSIITNLLYHVVGWTDWNLALNPEGGPNWVRNFVDSPIIVDITKDTFYKQPMFYHLGHFSKFIPEGSQRVGLVASQKNDLDAVALMHPDGSAVVVVLNRSSKDVPLTIKDPAVGFLETISPGYSIHTYLWHRQ	0.09	131 µM	0.14 µM/min	56.2 ± 0.1 °C
